Data published in US20110052591A1.

Biological target: TSH receptor on mouse alveolar macrophage AM cells (AMJ2-C8) (mouse) (UniProt P47750)
Assay: cell-based or functional assay

Sequence of UniProt P47750 (P47750 22-764): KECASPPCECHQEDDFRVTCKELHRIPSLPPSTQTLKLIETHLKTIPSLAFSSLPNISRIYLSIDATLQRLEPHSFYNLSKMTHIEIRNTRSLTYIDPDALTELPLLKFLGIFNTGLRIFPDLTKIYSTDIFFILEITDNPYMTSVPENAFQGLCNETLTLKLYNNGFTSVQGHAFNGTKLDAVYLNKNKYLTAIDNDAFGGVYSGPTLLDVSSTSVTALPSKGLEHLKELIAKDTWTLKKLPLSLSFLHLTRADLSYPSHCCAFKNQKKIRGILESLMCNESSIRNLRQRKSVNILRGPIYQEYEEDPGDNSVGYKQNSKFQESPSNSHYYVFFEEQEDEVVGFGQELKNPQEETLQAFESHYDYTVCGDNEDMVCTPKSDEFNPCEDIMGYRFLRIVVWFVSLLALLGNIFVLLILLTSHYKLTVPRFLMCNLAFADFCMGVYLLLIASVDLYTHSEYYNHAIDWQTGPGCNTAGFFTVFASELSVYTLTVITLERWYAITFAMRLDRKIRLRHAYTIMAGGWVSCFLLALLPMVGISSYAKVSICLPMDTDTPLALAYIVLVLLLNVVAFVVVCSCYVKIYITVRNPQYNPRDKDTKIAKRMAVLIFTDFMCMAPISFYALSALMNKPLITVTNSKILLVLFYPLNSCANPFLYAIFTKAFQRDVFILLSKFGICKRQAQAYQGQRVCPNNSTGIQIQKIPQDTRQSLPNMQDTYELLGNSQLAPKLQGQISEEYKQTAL

Row | cAMP response of AM cells; concentration of peak activity | Substance
1 | 1000 nM | recombinant mouse novel TSHβ splice variant (from UniProt P12656 55-138) (ligand)
2 | 0.1 nM | recombinant mouse native TSHβ (from UniProt P12656 21-138) (ligand)
